Reference: IntAct's records for PubMed 21262861

The substances below were run against sox6_human SOX6 (UniProt P35712).
Sequence of sox6_human SOX6 (P35712 whole entry): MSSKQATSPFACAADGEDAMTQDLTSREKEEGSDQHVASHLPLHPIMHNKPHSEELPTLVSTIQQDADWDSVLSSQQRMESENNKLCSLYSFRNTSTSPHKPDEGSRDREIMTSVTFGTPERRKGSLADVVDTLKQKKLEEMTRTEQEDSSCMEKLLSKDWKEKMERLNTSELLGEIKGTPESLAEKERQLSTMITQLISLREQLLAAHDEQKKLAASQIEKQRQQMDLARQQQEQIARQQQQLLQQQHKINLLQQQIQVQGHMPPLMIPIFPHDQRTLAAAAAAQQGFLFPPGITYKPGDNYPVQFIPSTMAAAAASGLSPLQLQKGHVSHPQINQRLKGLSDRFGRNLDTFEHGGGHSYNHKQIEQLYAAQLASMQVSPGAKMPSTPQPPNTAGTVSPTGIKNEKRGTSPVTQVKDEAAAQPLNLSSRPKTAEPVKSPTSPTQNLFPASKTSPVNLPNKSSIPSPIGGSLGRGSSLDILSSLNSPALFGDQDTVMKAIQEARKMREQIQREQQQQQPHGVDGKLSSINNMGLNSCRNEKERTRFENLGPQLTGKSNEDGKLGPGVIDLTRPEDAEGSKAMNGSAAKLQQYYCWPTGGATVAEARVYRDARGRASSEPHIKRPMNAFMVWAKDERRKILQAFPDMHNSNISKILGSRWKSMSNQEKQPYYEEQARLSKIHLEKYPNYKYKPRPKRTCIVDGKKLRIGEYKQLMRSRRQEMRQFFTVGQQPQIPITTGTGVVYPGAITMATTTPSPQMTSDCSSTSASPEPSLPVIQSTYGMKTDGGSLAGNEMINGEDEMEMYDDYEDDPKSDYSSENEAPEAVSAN

Sequence of Short stature homeobox protein (Homo sapiens), O15266 R168Y (O15266 whole entry R168Y): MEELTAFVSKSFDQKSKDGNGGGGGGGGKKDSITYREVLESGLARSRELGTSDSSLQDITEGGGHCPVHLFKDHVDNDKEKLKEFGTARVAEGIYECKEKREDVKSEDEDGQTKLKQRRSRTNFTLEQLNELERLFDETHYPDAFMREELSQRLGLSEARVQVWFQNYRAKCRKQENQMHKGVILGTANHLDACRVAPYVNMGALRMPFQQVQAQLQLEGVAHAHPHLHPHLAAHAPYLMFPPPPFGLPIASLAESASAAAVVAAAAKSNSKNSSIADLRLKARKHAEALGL
Sequence of Short stature homeobox protein (Homo sapiens), O15266 D278A (O15266 whole entry D278A): as the sequence (O15266 whole entry R168Y) above, with Y168R, D278A counted along it
Sequence of Short stature homeobox protein (Homo sapiens), O15266 A233E (O15266 whole entry A233E): as the sequence (O15266 whole entry R168Y) above, with Y168R, A233E counted along it
Sequence of Short stature homeobox protein (Homo sapiens), O15266 L132V (O15266 whole entry L132V): as the sequence (O15266 whole entry R168Y) above, with L132V, Y168R counted along it
Sequence of Short stature homeobox protein (Homo sapiens), O15266 R173C (O15266 whole entry R173C): as the sequence (O15266 whole entry R168Y) above, with Y168R, R173C counted along it
Sequence of Short stature homeobox protein (Homo sapiens), O15266 K116E (O15266 whole entry K116E): as the sequence (O15266 whole entry R168Y) above, with K116E, Y168R counted along it
Sequence of Short stature homeobox protein (Homo sapiens), O15266 A170P (O15266 whole entry A170P): as the sequence (O15266 whole entry R168Y) above, with Y168R, A170P counted along it
Sequence of Short stature homeobox protein (Homo sapiens), O15266 R195P (O15266 whole entry R195P): as the sequence (O15266 whole entry R168Y) above, with Y168R, R195P counted along it

Row | Substance | effect of a mutation on the interaction
1 | Short stature homeobox protein (Homo sapiens), O15266 K116E | decreasing interaction
2 | Short stature homeobox protein (Homo sapiens), O15266 R168Y | decreasing interaction
3 | Short stature homeobox protein (Homo sapiens), O15266 R195P | decreasing interaction

More lines, now with the values ahead:

Row | effect of a mutation on the interaction | Substance
4 | disrupting interaction | Short stature homeobox protein (Homo sapiens), O15266 A170P
5 | decreasing interaction | Short stature homeobox protein (Homo sapiens), O15266 A233E
6 | decreasing interaction | Short stature homeobox protein (Homo sapiens), O15266 D278A
7 | disrupting interaction | Short stature homeobox protein (Homo sapiens), O15266 L132V
8 | decreasing interaction | Short stature homeobox protein (Homo sapiens), O15266 R173C
